Test [1] concerns the target acidic activation domain of GAL4 (residues 768-881) (Saccharomyces cerevisiae (strain ATCC …, UniProt P04386)). The test can be described thus: yeast two-hybrid.
In test [2] the target is control resin that lacked Sp1 (streptavidin-agarose with biotinylated oligonucleotides) (Streptomyces avidinii, UniProt P22629). The test can be described thus: 35S-TAF110 on control DNA affinity resin, SDS-PAGE, autoradiography.
Test [3] has as its target T1, Drosophila TATA-binding protein (dTBP) (Drosophila, UniProt P20227).
T1 sequence: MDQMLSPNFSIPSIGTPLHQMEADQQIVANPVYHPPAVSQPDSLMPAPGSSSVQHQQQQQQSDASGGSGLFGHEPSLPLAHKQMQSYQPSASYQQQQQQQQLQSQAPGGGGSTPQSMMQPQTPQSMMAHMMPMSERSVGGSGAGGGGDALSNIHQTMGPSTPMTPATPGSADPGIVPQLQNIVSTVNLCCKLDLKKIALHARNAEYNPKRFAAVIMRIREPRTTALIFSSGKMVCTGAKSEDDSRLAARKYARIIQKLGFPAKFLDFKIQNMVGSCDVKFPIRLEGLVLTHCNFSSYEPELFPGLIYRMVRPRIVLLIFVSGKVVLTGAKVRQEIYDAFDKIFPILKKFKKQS
The test can be described thus: coimmunoprecipitation of in vitro expressed proteins.

Test [4] has as its target T2, GST-NTF-1 fusion protein containing the N-terminal 284 amino acids of NTF-1 (Drosophila, UniProt P13002).
T2 sequence: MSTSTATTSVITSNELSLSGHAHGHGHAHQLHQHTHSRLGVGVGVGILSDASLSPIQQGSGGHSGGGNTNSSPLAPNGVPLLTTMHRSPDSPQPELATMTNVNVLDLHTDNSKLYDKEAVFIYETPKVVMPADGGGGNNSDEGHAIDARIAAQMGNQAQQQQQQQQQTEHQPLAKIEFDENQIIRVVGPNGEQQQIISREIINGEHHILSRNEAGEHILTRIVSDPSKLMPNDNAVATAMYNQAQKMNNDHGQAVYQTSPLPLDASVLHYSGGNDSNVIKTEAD
The test can be described thus: GST-NTF-1 fusion binding assay.

The target of test [5] is human TATA-binding protein (hTBP) (human, UniProt P20226). The test is described as follows: Far Western of immunoprecipitated hTFIID complex with 35S-labeled hTBP.
A further test has as its target radiolabeled nTBP (Homo sapiens (Human), UniProt P20226). The test is described as follows: Far Western with radiolabeled probe.
Test [6] concerns the target Sp1, over-expressed and purified from HeLa cells infected with a vaccinia virus expression vector (Homo sapiens (Human), UniProt P08047). The test can be described thus: in vitro binding to DNA-bound Sp1 resin.

Data on six molecules can be found in patent publication US5534410, “TATA-binding protein associated factors drug screens” (The Regents of the University of California, dated 1996).

B1: G4-110 (fl): full-length TAF110 fused to the DNA binding domain of GAL4, G4(1-147) (other)
chain: MNTSQTAAGNRITFTSQPLPNGTISIAGNPGAVISTAQLPNTTTIKTIQAGIGGQHQGLQQVHHVQQQQQSQQQQQQQQQTQSAGQPLLNSMLPAGVVVGMRQQAPSQQQQKNVPTNPLSRVVINSHMAGVRPQSPSITLSTLNTGQTPALLVKTDNGFQLLRVGTTTGPPTVTQTITNTSNNSNTTSTTNHPTTTQIRLQTVPAAASMTNTTATSNIIVNSVASSGYANSSQPPHLTQLNAQAPQLPQITQIQTIPAQQSQQQQVNNVSSAGGTATAVSSTTAATTTQQGNTKEKCRKFLANLIELSTREPKPVEKNVRTLIQELVNANVEPEEFCDRLERLLNASPQPCLIGFLKKSLPLLRQALYTKELVIEGIKPPPQHVLGLAGLSQQLPKIQAQIRPIGPSQTTTIGQTQVRMITPNALGTPRPTIGHTTISKQPPNIRLPTAPRLVNTGGIRTQIPSLQVPGQANIVQIRGPQHAQLQRTGSVQIRATTRPPNSVPTANKLTAVKVGQTQIKAITPSLHPPSLAAISGGPPPTPTLSVLSTLNSASTTTLPIPSLPTVHLPPEALRAREQMQNSLNHNSNHFDAKLVEIKAPSLHPPHMERINASLTPIGAKTMARPPPAINKAIGKKKRDAMEMDAKLNTSSGGAASAANSFFQQSSMSSMYGDDDINDVAAMGGVNLAEESQRILGCTENIGTQIRSCKDEVFLNLPSLQARIRAITSEAGLDEPSQDVAVLISHACQERLKNIVEKLAVIAEHRIDVIKLDPRYEPAKDVRGQIKFLEELDKAEQKRHEELEREMLLRAAKSRSRVEDPEQAKMKARAKEMQRAEMEELRQRDANLTALQAIGPRKKLKLDGETVSSGAGSSGGGVLSSSGSAPTTLRPRIKRVNLRDMLFYMEQEREFCRSSMLFKTYLK
For B1, the binding result in test [1] is listed as “no binding”.

B2: Drosophila TAF110 (dTAFII110), full-length (other)
chain: MNTSQTAAGNRITFTSQPLPNGTISIAGNPGAVISTAQLPNTTTIKTIQAGIGGQHQGLQQVHHVQQQQQSQQQQQQQQQTQSAGQPLLNSMLPAGVVVGMRQQAPSQQQQKNVPTNPLSRVVINSHMAGVRPQSPSITLSTLNTGQTPALLVKTDNGFQLLRVGTTTGPPTVTQTITNTSNNSNTTSTTNHPTTTQIRLQTVPAAASMTNTTATSNIIVNSVASSGYANSSQPPHLTQLNAQAPQLPQITQIQTIPAQQSQQQQVNNVSSAGGTATAVSSTTAATTTQQGNTKEKCRKFLANLIELSTREPKPVEKNVRTLIQELVNANVEPEEFCDRLERLLNASPQPCLIGFLKKSLPLLRQALYTKELVIEGIKPPPQHVLGLAGLSQQLPKIQAQIRPIGPSQTTTIGQTQVRMITPNALGTPRPTIGHTTISKQPPNIRLPTAPRLVNTGGIRTQIPSLQVPGQANIVQIRGPQHAQLQRTGSVQIRATTRPPNSVPTANKLTAVKVGQTQIKAITPSLHPPSLAAISGGPPPTPTLSVLSTLNSASTTTLPIPSLPTVHLPPEALRAREQMQNSLNHNSNHFDAKLVEIKAPSLHPPHMERINASLTPIGAKTMARPPPAINKAIGKKKRDAMEMDAKLNTSSGGAASAANSFFQQSSMSSMYGDDDINDVAAMGGVNLAEESQRILGCTENIGTQIRSCKDEVFLNLPSLQARIRAITSEAGLDEPSQDVAVLISHACQERLKNIVEKLAVIAEHRIDVIKLDPRYEPAKDVRGQIKFLEELDKAEQKRHEELEREMLLRAAKSRSRVEDPEQAKMKARAKEMQRAEMEELRQRDANLTALQAIGPRKKLKLDGETVSSGAGSSGGGVLSSSGSAPTTLRPRIKRVNLRDMLFYMEQEREFCRSSMLFKTYLK
For the molecule B2, the binding result in test [2] and in test [3] was “no binding” throughout.

B3: dTAFII80 (other)
chain: MSLEVSNINGGNGTQLSHDKRELLCLLKLIKKYQLKSTEELLCQEANVSSVELSEISESDVQQVLGAVLGAGDANRERKHVQSPAQGHKQSAVTEANAAEELAKFIDDDSFDAQHYEQAYKELRTFVEDSLDIYKHELSMVLYPILVQIYFKILASGLREKAKEFIEKYKCDLDGYYIEGLFNLLLLSKPEELLENDLVVAMEQDKFVIRMSRDSHSLFKRHIQDRRQEVVADIVSKYLHFDTYEGMARNKLQCVATAGSHLGEAKRQDNKMRVYYGLLKEVDFQTLTTPAPAPEEEDDDPDAPDRPKKKKPKKDPLLSKKSKSDPNAPSIDRIPLPELKDSDKLLKLKALREASKRLALSKDQLPSAVFYTVLNSHQGVTCAEISDDSTMLACGFGDSSVRIWSLTPAKLRTLKDADSLRELDKESADINVRMLDDRSGEVTRSLMGHTGPVYRCAFAPEMNLLLSCSEDSTIRLWSLLTWSCVVTYRGHVYPVWDVRFAPHGYYFVSCSYDKTARLWATDSNQALRVFVGHLSDVDCVQFHPNSNYVATGSSDRTVRLWDNMTGQSVRLMTGHKGSVSSLAFSACGRYLASGSVDHNIIIWDLSNGSLVTTLLRHTSTVTTITFSRDGTVLAAAGLDNNLTLWDFHKVTEDYISNHITVSHHQDENDEDVYLMRTFPSKNSPFVSLHFTRRNLLMCVGLFKS
As to B3, the binding result in test [4] is on record as “no binding”.

B4: hTAFII250 (other)
chain: MGPGCDLLLRTAATITAAAIMSDTDSDEDSAGGGPFSLAGFLFGNINGAGQLEGESVLDDECKKHLAGLGALGLGSLITELTANEELTGTDGALVNDEGWVRSTEDAVDYSDINEVAEDESRRYQQTMGSLQPLCHSDYDEDDYDADCEDIDCKLMPPPPPPPGPMKKDKDQDSITGVSENGEGIILPSIIAPSSLASEKVDFSSSSDSESEMGPQEATQAESEDGKLTLPLAGIMQHDATKLLPSVTELFPEFRPGKVLRFLRLFGPGKNVPSVWRSARRKRKKKHRELIQEEQIQEVECSVESEVSQKSLWNYDYAPPPPPEQCLSDDEITMMAPVESKFSQSTGDIDKVTDTKPRVAEWRYGPARLWYDMLGVPEDGSGFDYGFKLRKTEHEPVIKSRMIEEFRKLEENNGTDLLADENFLMVTQLHWEDDIIWDGEDVKHKGTKPQRASLAGWLPSSMTRNAMAYNVQQGFAATLDDDKPWYSIFPIDNEDLVYGRWEDNIIWDAQAMPRLLEPPVLTLDPNDENLILEIPDEKEEATSNSPSKESKKESSLKKSRILLGKTGVIKEEPQQNMSQPEVKDPWNLSNDEYYYPKQQGLRGTFGGNIIQHSIPAVELRQPFFPTHMGPIKLRQFHRPPLKKYSFGALSQPGPHSVQPLLKHIKKKAKMREQERQASGGGEMFFMRTPQDLTGKDGDLILAEYSEENGPLMMQVGMATKIKNYYKRKPGKDPGAPDCKYGETVYCHTSPFLGSLHPGQLLQAFENNLFRAPIYLHKMPETDFLIIRTRQGYYIRELVDIFVVGQQCPLFEVPGPNSKRANTHIRDFLQVFIYRLFWKSKDRPRRIRMEDIKKAFPSHSESSIRKRLKLCADFKRTGMDSNWWVLKSDFRLPTEEEIRAMVSPEQCCAYYSMIAAEQRLKDAGYGEKSFFAPEEENEEDFQMKIDDEVRTAPWNTTRAFIAAMKGKCLLEVTGVADPTGCGEGFSYVKIPNKPTQQKDDKEPQPVKKTVTGTDADLRRLSLKNAKQLLRKFGVPEEEIKKLSRWEVIDVVRTMSTEQARSGEGPMSKFARGSRFSVAEHQERYKEECQRIFDLQNKVLSSTEVLSTDTDSSSAEDSDFEEMGKNIENMLQNKKTSSQLSREREEQERKELQRMLLAAGSAASGNNHRDDDTASVTSLNSSATGRCLKIYRTFRDEEGKEYVRCETVRKPAVIDAYVRIRTTKDEEFIRKFALFDEQHREEMRKERRRIQEQLRRLKRNQEKEKLKGPPEKKPKKMKERPDLKLKCGACGAIGHMRTNKFCPLYYQTNAPPSNPVAMTEEQEEELEKTVIHNDNEELIKVEGTKIVLGKQLIESADEVRRKSLVLKFPKQQLPPKKKRRVGTTVHCDYLNRPHKSIHRRRTDPMVTLSSILESIINDMRDLPNTYPFHTPVNAKVVKDYYKIITRPMDLQTLRENVRKRLYPSREEFREHLELIVKNSATYNGPKHSLTQISQSMLDLCDEKLKEKEDKLARLEKAINPLLDDDDQVAFSFILDNIVTQKMMAVPDSWPFHHPVNKKFVPDYYKVIVNPMDLETIRKNISKHKYQSRESFLDDVNLILANSVKYNGPESQYTKTAQEIVNVCYQTLTEYDEHLTQLEKDICTAKEAALEEAELESLDPMTPGPYTPQPPDLYDTNTSLSMSRDASVFQDESNMSVLDIPSATPEKQVTQEGEDGDGDLADEEEGTVQQPQASVLYEDLLMSEGEDDEEDAGSDEEGDNPFSAIQLSESGSDSDVGSGGIRPKQPRMLQENTRMDMENEESMMSYEGDGGEASHGLEDSNISYGSYEEPDPKSNTQDTSFSSIGGYEVSEEEEDEEEEEQRSGPSVLSQVHLSEDEEDSEDFHSIAGDSDLDSDE
B4: the binding result in test [5] is “binds”; with radiolabeled nTBP it was “no binding”.

B5: TAF110 deletion mutant 1-137 (other)
chain: MNTSQTAAGNRITFTSQPLPNGTISIAGNPGAVISTAQLPNTTTIKTIQAGIGGQHQGLQQVHHVQQQQQSQQQQQQQQQTQSAGQPLLNSMLPAGVVVGMRQQAPSQQQQKNVPTNPLSRVVINSHMAGVRPQSPS
With B5, in test [6], the binding result is listed as “no binding”.

B6: dTAFII40 (other)
chain: MSAEKSDKAKISAQIKHVPKDAQVIMSILKELNVQEYEPRVVNQLLEFTFRYVTCILDDAKVYANHARKKTIDLDDVRLATEVTLDKSFTGPLERHVLAKVADVRNSMPLPPIKPHCGLRLPPDRYCLTGVNYKLRATNQPKKMTKSAVEGRPLKTVVKPVSSANGPKRPHSVVAKQQVVTIPKPVIKFTTTTTTKTVGSSGGSGGGGGQEVKSESTGAGGDLKMEVDSDAAAVGSIAGASGSGAGSASGGGGGGGSSGVGVAVKREREEEEFEFVTN
In the case of B6, the binding result in test [4] is recorded as “no binding”.
